Data set [1] addresses T1, QP47 peptide (FAAAYPDDD).
T1 chain: FAAAYPDDD

Data set [2] has as its target T2, IAKLDEESILKQK
T2 chain: IAKLDEESILKQK

The target of data set [3] is T3, KKLDEESILKQK
T3 chain: KKLDEESILKQK

For data set [4], the target named is T4, QP514 (DQQRLIFAYPDDD).
T4 chain: DQQRLIFAYPDDD

Data set [5] concerns the target T5, RRLDEESILKQK
T5 chain: RRLDEESILKQK

Data set [6] concerns the target T6, WKELDEESILKQK
T6 chain: WKELDEESILKQK

B1: AP30 (protein)
chain: MEVRNMVDYELLKKVVEAPGVSGYEFLGIRDVVIEEIKDYVDEVKVDKLGNVIAHKKGEGPKVMIAAHMDQIGLMVTHIEKNGFLRVAPIGGVDPKTLIAQRFKVWIDKGKFIYGVGASVPPHIQKPEDRKKAPDWDQIFIDIGAESKEEAEDMGVKIGTVITWDGRLERLGKHRFVSIAFDDRIAVYTILEVAKQLKDAKADVYFVATVQEEVGLRGARTSAFGIEPDYGFAIDVTIAADIPGTPEHKQVTHLGKGTAIKIMDRSVICHPTIVRWLEELAKKHEIPYQLEILLGGGTDAGAIHLTKAGVPTGALSVPARYIHSNTEVVDERDVDATVELMTKALENIHELKIGGSHHHHHHHHHHGGGSGGGSGGGSGLNDFFEAQKIEWHEGGGSGGGSGGGSGLNDFFEAQKIEWHE
For the protein B1, the “RSC (rapid sequential cleavage) population, protein sequencing assay with AP30 (5 µM)” value in data set [1] is given as “The RSC population with AP30 was only ~25%”.

B2: Pyrococcus horikoshii TET II Aminopeptidase (hTET II) (protein)
chain: MEVRNMVDYELLKKVVEAPGVSGYEFLGIRDVVIEEIKDYVDEVKVDKLGNVIAHKKGEGPKVMIAAHMDQIGLMVTHIEKNGFLRVAPIGGVDPKTLIAQRFKVWIDKGKFIYGVGASVPPHIQKPEDRKKAPDWDQIFIDIGAESKEEAEDMGVKIGTVITWDGRLERLGKHRFVSIAFDDRIAVYTILEVAKQLKDAKADVYFVATVQEEVGLRGARTSAFGIEPDYGFAIDVTIAADIPGTPEHKQVTHLGKGTAIKIMDRSVICHPTIVRWLEELAKKHEIPYQLEILLGGGTDAGAIHLTKAGVPTGALSVPARYIHSNTEVVDERDVDATVELMTKALENIHELKI
For B2, in data set [1], the “RSC (rapid sequential cleavage) population, protein sequencing assay with hTETII (1 µM)” value is “RSC population is ~40%”.

B3: AP37 (protein)
chain: MDLKGGESMVDWKLMQEIIEAPGVSGYEHLGIRDIVVDVLKEVADEVKVDKLGNVIAHFKGSSPRIMVAAHMDKIGVMVNHIDKDGYLHIVPIGGVLPETLVAQRIRFFTEKGERYGVVGVLPPHLRRGQEDKGSKIDWDQIVVDVGASSKEEAEEMGFRVGTVGEFAPNFTRLNEHRFATPYLDDRICLYAMIEAARQLGDHEADIYIVGSVQEEVGLRGARVASYAINPEVGIAMDVTFAKQPHDKGKIVPELGKGPVMDVGPNINPKLRAFADEVAKKYEIPLQVEPSPRPTGTDANMQINREGVATAVLSIPIRYMHSQVELADARDVDNTIKLAKALLEELKPMDFTPGHHHHHHHHHH
In data set [2], B3 gave a Percent N-Terminal Residue Cut (HPLC assay), AP37 after conditioning, 1 µM of 74%; a Percent N-Terminal Residue Cut (HPLC assay), AP37 after conditioning, 10 µM of 100%; a Percent N-Terminal Residue Cut (HPLC assay), AP37 before conditioning, 1 µM of 13%; a Percent N-Terminal Residue Cut (HPLC assay), AP37 before conditioning, 10 µM of 57%. Besides, in data set [3], the Percent N-Terminal Residue Cut (HPLC assay), AP37 after conditioning, 1 µM is 61%; the Percent N-Terminal Residue Cut (HPLC assay), AP37 after conditioning, 10 µM worked out at 100%; the Percent N-Terminal Residue Cut (HPLC assay), AP37 before conditioning, 1 µM came out at 11%; the Percent N-Terminal Residue Cut (HPLC assay), AP37 before conditioning, 10 µM stood at 71%. The “cleavage of arginine in protein sequencing assay, AP37 (40 µM) alone” value in data set [4] is reported as “AP37 shows better efficiency cleaving arginine than PfuTET when alone”. In data set [5], this protein gave a Percent N-Terminal Residue Cut (HPLC assay), AP37 after conditioning, 1 µM of 70%; a Percent N-Terminal Residue Cut (HPLC assay), AP37 after conditioning, 10 µM of 100%; a Percent N-Terminal Residue Cut (HPLC assay), AP37 before conditioning, 1 µM of 8%; a Percent N-Terminal Residue Cut (HPLC assay), AP37 before conditioning, 10 µM of 26%. Also, in data set [6], the Percent N-Terminal Residue Cut (HPLC assay), AP37 after conditioning, 1 µM was found to be 97%; the Percent N-Terminal Residue Cut (HPLC assay), AP37 after conditioning, 10 µM was found to be 99%; the Percent N-Terminal Residue Cut (HPLC assay), AP37 before conditioning, 1 µM came out at 18%; the Percent N-Terminal Residue Cut (HPLC assay), AP37 before conditioning, 10 µM stood at 55%.

For the origin of these results see patent publication US20240295562.
